Data taken from paper PMC3093407.

Assays:
[1] = biological target: CFP-tagged human αA-crystallin wild-type (human) (UniProt P02489); test: FRET or BRET; acceptor photobleaching in living HeLa cells co-transfected for 48 h; CFP fusion as donor, YFP fusion as acceptor bleached at 514 nm; FRET efficiency from ten images per construct, three experiments; room temperature
[2] = biological target: CFP-tagged human αB-crystallin wild-type (human) (UniProt P02511); test: as above
Chain of UniProt P02511 (P02511 whole entry): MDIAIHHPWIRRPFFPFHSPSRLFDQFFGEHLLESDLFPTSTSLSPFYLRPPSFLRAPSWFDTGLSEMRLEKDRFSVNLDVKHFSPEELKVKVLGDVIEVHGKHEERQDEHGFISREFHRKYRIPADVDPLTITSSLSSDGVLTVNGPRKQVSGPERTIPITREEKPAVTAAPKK

YFP-tagged C-terminal truncated human αA-crystallin αA162 (from UniProt P02489 1-162) (domain or fragment)
FRET efficiency against αAwt/αAwt [1]: 30 % lower

YFP-tagged C-terminal truncated human αA-crystallin αA168 (from UniProt P02489 1-168) (domain or fragment)
FRET efficiency against αAwt/αAwt [1]: 30 % lower

YFP-tagged C-terminal truncated human αA-crystallin αA172 (from UniProt P02489 1-172) (domain or fragment)
FRET efficiency against αBwt/αAwt [2]: 2 fold | FRET efficiency against αAwt/αAwt [1]: 50 % higher
